In PMC10994853:

Target: SkpA (Fjoh_1689) (Flavobacterium johnsoniae (endogenous))
Test: cryo-EM structure; Extended Translocon, peak I of Twin-strep–SprA complexes from a ΔgldL background (also seen at 4.3 Å from ΔgldM peak I); assembled in vivo, in LMNG

stoichiometry N: 3
Substance: SkpA (Fjoh_1689) (natural protein)
